# PMC8373075 (Nucleic Acids Research, 2021)
# B1: endogenous CBP80 (natural protein, human (endogenous in HEK293T), UniProt Q09161 1-790, looked up)
# chain: MSRRRHSDENDGGQPHKRRKTSDANETEDHLESLICKVGEKSACSLESNLEGLAGVLEADLPNYKSKILRLLCTVARLLPEKLTIYTTLVGLLNARNYNFGGEFVEAMIRQLKESLKANNYNEAVYLVRFLSDLVNCHVIAAPSMVAMFENFVSVTQEEDVPQVRRDWYVYAFLSSLPWVGKELYEKKDAEMDRIFANTESYLKRRQKTHVPMLQVWTADKPHPQEEYLDCLWAQIQKLKKDRWQERHILRPYLAFDSILCEALQHNLPPFTPPPHTEDSVYPMPRVIFRMFDYTDDPEGPVMPGSHSVERFVIEENLHCIIKSHWKERKTCAAQLVSYPGKNKIPLNYHIVEVIFAELFQLPAPPHIDVMYTTLLIELCKLQPGSLPQVLAQATEMLYMRLDTMNTTCVDRFINWFSHHLSNFQFRWSWEDWSDCLSQDPESPKPKFVREVLEKCMRLSYHQRILDIVPPTFSALCPANPTCIYKYGDESSNSLPGHSVALCLAVAFKSKATNDEIFSILKDVPNPNQDDDDDEGFSFNPLKIEVFVQTLLHLAAKSFSHSFSALAKFHEVFKTLAESDEGKLHVLRVMFEVWRNHPQMIAVLVDKMIRTQIVDCAAVANWIFSSELSRDFTRLFVWEILHSTIRKMNKHVLKIQKELEEAKEKLARQHKRRSDDDDRSSDRKDGVLEEQIERLQEKVESAQSEQKNLFLVIFQRFIMILTEHLVRCETDGTSVLTPWYKNCIERLQQIFLQHHQIIQQYMVTLENLLFTAELDPHILAVFQQFCALQA
# Target: T1, FLAG-CTIF-F460A (human, UniProt O43310 1-598, F460A)
# T1 sequence (looked up): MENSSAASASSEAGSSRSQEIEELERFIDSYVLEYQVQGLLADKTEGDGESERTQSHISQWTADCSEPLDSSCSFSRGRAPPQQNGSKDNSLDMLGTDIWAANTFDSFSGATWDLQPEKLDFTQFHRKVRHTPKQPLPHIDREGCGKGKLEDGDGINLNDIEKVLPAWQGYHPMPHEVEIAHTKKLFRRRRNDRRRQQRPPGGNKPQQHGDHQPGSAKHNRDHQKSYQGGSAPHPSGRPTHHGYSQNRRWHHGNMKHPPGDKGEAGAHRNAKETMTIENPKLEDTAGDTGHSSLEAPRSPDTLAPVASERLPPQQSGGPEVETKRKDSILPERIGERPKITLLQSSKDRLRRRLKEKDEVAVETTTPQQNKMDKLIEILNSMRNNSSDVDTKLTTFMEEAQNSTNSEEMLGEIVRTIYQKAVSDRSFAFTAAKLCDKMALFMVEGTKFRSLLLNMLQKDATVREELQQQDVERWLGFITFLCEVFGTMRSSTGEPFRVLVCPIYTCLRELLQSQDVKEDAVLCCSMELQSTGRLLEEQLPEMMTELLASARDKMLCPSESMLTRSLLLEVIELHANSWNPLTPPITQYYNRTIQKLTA
# Experiment: co-IP
binder,measurement,value
B1,fold change of the co-immunoprecipitated amount against the IP of CTIF-WT,~2.8 fold
